Test results as given in patent US20030175819A1 (BURNHAM INSTITUTE, published 2003).
*: point of attachment. RhodamineB = CCN(CC)c1ccc2c(-c3ccccc3C(=O)*)c3ccc(=[N+](CC)CC)cc-3oc2c1; Ahx = NCCCCCC(=O)O

Tests used:
[1] = molecular target: T1, GFP-HN (Green Fluorescent Protein fused to wild-type, full-length Humanin, cytosolic / nuclear-encoded form) (human, UniProt P42212 1-238 = GFP); test: co-immunoprecipitation from HEK293T cells (anti-GFP IP, anti-myc blot)
T1 construct: Humanin cDNA in the XhoI/HindIII sites of GFP-C1 (pEGFP-C1), so GFP is N-terminal; also called GFP-HN(N); GFP-Humanin

[2] = molecular target: Recombinant Bcl-XL protein (UniProt Q07817 1-211); test: fluorescence polarization assay
Sequence of Recombinant Bcl-XL protein (Q07817 1-211): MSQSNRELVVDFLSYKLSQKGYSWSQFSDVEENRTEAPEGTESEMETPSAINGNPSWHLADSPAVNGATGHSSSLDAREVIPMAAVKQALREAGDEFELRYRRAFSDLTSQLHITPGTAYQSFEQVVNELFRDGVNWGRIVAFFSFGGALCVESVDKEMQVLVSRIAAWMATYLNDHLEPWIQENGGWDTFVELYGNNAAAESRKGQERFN
Experimental: (§1) In this example, the in vitro binding assay is a fluorescence polarization assay (FPA). For this experiment, full-length Bax protein was produced in bacteria and purified. […] The extent of peptide binding was then monitored by measuring polarization of monochromatic light passed through the sample, where peptide binding to the bulkier protein slows the rate of peptide tumbling in solution, enhancing the polarization effect.
(§2) Fluorescence Polarization Assays were performed as follows. […] Fluorescence polarization was measured using an AnalystTM AD Assay Detection System (LJL Biosystem, Sunnyvale, Calif.).

[3] = molecular target: T2, purified recombinant full-length Bax protein (from E. coli BL21 harboring pTYB1-Bax) (human, UniProt Q07812 1-192); test: fluorescence polarization assay, various concentrations of purified recombinant Bax with 40 nM rhodamine-conjugated Humanin peptide
T2 construct: also called recombinant Bax
T2 sequence (Q07812 whole entry): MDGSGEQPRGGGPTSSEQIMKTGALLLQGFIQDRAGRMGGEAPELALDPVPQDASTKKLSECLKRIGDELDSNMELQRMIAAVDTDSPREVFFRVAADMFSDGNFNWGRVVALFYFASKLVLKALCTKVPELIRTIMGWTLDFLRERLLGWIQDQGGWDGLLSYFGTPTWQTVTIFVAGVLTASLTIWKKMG
Experimental: as §1, §2

| Binder | binding result [1] | binding result [2] | Kd [3] [nM] |
| --- | --- | --- | --- |
| myc-tagged Bcl-B (from pcDNA3-myc) (other, UniProt Q9HD36 1-204, looked up, not shown: small tags and cut ends) MVDQLRERTTMADPLRERTELLLADYLGYCAREPGTPEPAPSTPEAAVLRSAAARLRQIHRSFFSAYLGYPGNRFELVALMADSVLSDSPGPTWGRVVTLVTFAGTLLERGPLVTARWKKWGFQPRLKEQEGDVARDCQRLVALLSSRLMGQHRAWLQAQGGWDGFCHFFRTPFPLAFWRKQLVQAFLSCLLTTAFIYLWTRLL | no binding |  |  |
| myc-tagged Bok (from pcDNA3-myc) (other, UniProt Q9UMX3 1-212, looked up, not shown: small tags and cut ends) MEVLRRSSVFAAEIMDAFDRSPTDKELVAQAKALGREYVHARLLRAGLSWSAPERAAPVPGRLAEVCAVLLRLGDELEMIRPSVYRNVARQLHISLQSEPVVTDAFLAVAGHIFSAGITWGKVVSLYAVAAGLAVDCVRQAQPAMVHALVDCLGEFVRKTLATWLRRRGGWTDVLKCVVSTDPGLRSHWLVAALCSFGRFLKAAFFVLLPER | no binding |  |  |
| {RhodamineB-Ahx}-MAPRGFSCLLLLTSEIDLPVKRRA-NH2 (also called rhodamine-HN; rhodamine-conjugated HN peptide) [rhodamine-conjugated synthetic purified Humanin peptide] |  | no binding | ~2 |
| myc-tagged Bak (from pcDNA3-myc) (other, UniProt Q16611 1-211, looked up, not shown: small tags and cut ends) MASGQGPGPPRQECGEPALPSASEEQVAQDTEEVFRSYVFYRHQQEQEAEGVAAPADPEMVTLPLQPSSTMGQVGRQLAIIGDDINRRYDSEFQTMLQHLQPTAENAYEYFTKIATSLFESGINWGRVVALLGFGYRLALHVYQHGLTGFLGQVTRFVVDFMLHHCIARWIAQRGGWVAALNLGNGPILNVLVVLGVVLLGQFVVRRFFKS | no binding |  |  |
